Experiment in all cases: ITC
Common to all, as to conditions: both partners purified

Assay [1] has as its target T1, Rae1(31-368)-Nup98(157-213) heterodimer (human, UniProt P78406 31-368; P52948 157-213).
T1 construct: also called Rae1-Nup98; Rae1-Nup98 complex
T1 sequence (P78406 31-368, chain 1 of 2): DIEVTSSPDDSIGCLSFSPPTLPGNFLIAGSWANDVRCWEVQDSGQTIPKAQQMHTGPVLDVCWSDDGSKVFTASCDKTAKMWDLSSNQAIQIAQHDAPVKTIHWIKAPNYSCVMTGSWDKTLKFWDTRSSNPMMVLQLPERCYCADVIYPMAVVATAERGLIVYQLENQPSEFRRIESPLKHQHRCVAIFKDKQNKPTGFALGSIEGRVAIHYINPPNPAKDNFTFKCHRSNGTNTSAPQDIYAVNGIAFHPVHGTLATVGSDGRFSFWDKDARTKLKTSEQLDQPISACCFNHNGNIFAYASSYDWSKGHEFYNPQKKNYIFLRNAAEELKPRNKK
T1 sequence (P52948 157-213, chain 2 of 2): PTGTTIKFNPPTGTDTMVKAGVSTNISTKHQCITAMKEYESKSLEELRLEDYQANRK

Assay [2] concerns the target T1, Rae1(31-368)-Nup98(157-213) heterodimer. The source holds these as a separate data set.
Assay [3] concerns the target T2, Rae1(31-368)-Nup98(157-213) heterodimer (human, UniProt P78406 31-368; P52948 157-213).
T2 construct: also called Rae1-Nup98; Rae1-Nup98 complex
The source holds these as a separate data set.
T2 sequence (P78406 31-368, chain 1 of 2): as the sequence (P78406 31-368, chain 1 of 2) above
T2 sequence (P52948 157-213, chain 2 of 2): as the sequence (P52948 157-213, chain 2 of 2) above

As to YSQLAEEQPMEID (source: synthetic peptide) [SARS-CoV-2 ORF6-D53A], in assay [1], the Ka was determined as 863000 M⁻¹; the affinity, expressed as Kd, was 1150 nM; the “stoichiometry N” value amounted to 0.71.
For YSQLDAEQPMEID (source: synthetic peptide) [SARS-CoV-2 ORF6-E54A] the same measures were 1.72e+06 M⁻¹, 580 nM and 0.59.
With YSQLDEEQPMEIA (source: synthetic peptide) [SARS-CoV-2 ORF6-D61A], in assay [2], the Ka was found to be 361000 M⁻¹, the Kd came to 2770 nM and the “stoichiometry N” value was found to be 0.76.
As to YSQLDEEEPMEID (source: synthetic peptide) [SARS-CoV-2 ORF6-Q56E], in assay [1], the Ka turned out to be 2.08e+07 M⁻¹, the Kd was found to be 40 nM and the “stoichiometry N” value was 0.781.
Turning to YSQLDEEQPLEID (source: synthetic peptide) [SARS-CoV-2 ORF6-M58L], in assay [2], the Ka stood at 96400 M⁻¹ and the “stoichiometry N” value was found to be 1.
For the molecule YSQLDEAQPMEID (source: synthetic peptide) [SARS-CoV-2 ORF6-E55A], in assay [1], the Ka turned out to be 1.75e+06 M⁻¹, the Kd was found to be 570 nM and the “stoichiometry N” value was found to be 0.65.
On to YSQLDEEQPMAID (source: synthetic peptide) [SARS-CoV-2 ORF6-E59A], for which, in assay [2], the Ka worked out at 606000 M⁻¹, binding was put at a Kd of 1650 nM and the “stoichiometry N” value was 0.68.
The corresponding values for YSQLDEEQAMEID (source: synthetic peptide) [SARS-CoV-2 ORF6-P57A] are 1.12e+06 M⁻¹, 890 nM and 2.34.
The corresponding values for YSQLDEEQPMEAD (source: synthetic peptide) [SARS-CoV-2 ORF6-I60A] are 238000 M⁻¹, 4200 nM and 0.68.
Regarding YSQLDEEQPMEAD (source: synthetic peptide) [SARS-CoV-2 ORF6 C3 peptide I60A], in assay [3], the “fold reduction of binding affinity against SARS-CoV-2 ORF6 C3” value was around 17.5 fold.
On to YSQLDEEQPLEID (source: synthetic peptide) [SARS-CoV-2 ORF6 C3 peptide M58L], for which binding in assay [3] was put at a Kd of 10400 nM.
As to YSQLDEEEPMEID (source: synthetic peptide) [SARS-CoV-2 ORF6 C3 peptide Q56E], the “fold increase of binding affinity against SARS-CoV-2 ORF6 C3” value in assay [3] is around 6 fold.

For orientation: Kd means the equilibrium constant for the complex coming apart. A lower Kd goes with tighter binding. By stoichiometry N is commonly meant the number of molecules, sites or subunits per partner or assembly.

Source of the values: article PMC9376891 (Nature Communications, 2022).
